Assay: yeast display, Sf9 membrane polyspecificity reagent, FACS + sequencing; frameworks hold sequencing errors
Outline: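 Nanobodies from a synthetic yeast display library (Saccharomyces cerevisiae BJ5465), induced 36–48 hours with galactose, were stained 1 hour at 4 °C with 10% biotinylated, detergent-solubilized Sf9 membrane reagent, enriched on streptavidin microbeads, then FACS-sorted. Anti-HA (expression) and streptavidin (reagent binding) fluorescence set low and high (top ~1%) gates. Polyreactivity labels come from the gate of origin. Genes were colony-PCR amplified, MiSeq 2 × 250 sequenced and filtered by CDR length.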

Row | Sequence | polyreactivity (PSR sort gate)
1 | QVQLVESGGGLVQAGGSLRLSCAASGITFTYYVMGWYRQAPGKERELVAAISSGGRTYYADSVKGRFTISRDNAKNTVYLEMNSLKPEDTAVYYCNADQYLRYFGRYYRSGEYWGQGTQVTVSS | high polyreactivity
2 | QVQLVESGGGLVQAGGSLRLSCAASGNIFFGNTMGWYRQAPGKERELVAAISRSGGSTYYADSVKGRFTISRDNAKNTVYLQMNSLKPEDTAVYYCAAEYYGWPYDSWGQGTQVTVSS | high polyreactivity
3 | QVQLVESGGGLVQAGGSLRLSCAASGRIFALNVMGWYRQAPGKERELVAAITWSSGRTYYADSVKGRFTISRDNAKNTVYLQMNSLKPEDTAVYYCAAAFRPRAIELSYYYWGQGTQVTVSS | high polyreactivity
4 | QVQLVESVGGLDQAGGSLRLSCAASALIFPRYDMGSYRQAPGKERELDAAITSGGGTYNADSVKGRFTISRDNAKITVYLQMNSLKPEDTAVYYCAAGPVFGGGGYDYWGQGTQVTVSS | low polyreactivity
5 | QVQLVESGGGLVQAGGSLRLSCAASGRIFEPYAMGWYRQAPGKERELFAAITSGGSTDYADSVKGRFTISRDNAKNTVYLQMNSLKPEDTAVYYCAARVTYGGIPARQIYDYWGQGTQVTVSS | low polyreactivity
6 | QVQLVESGGGLVQAGGSLRLSCAASGYVYVMGWYRQAPGKERELVAAISKNGGSTYYADSVKGRFTISRYNAKNTVYLQMNSLKPEDTAVYYCAAVSYHKTEYDYWGQGTQVTVSS | high polyreactivity
7 | QVQLVESGGGLVQAGGTLRLICAASGSTLYWNAMGLYRQAPGKQRELVAGISIGGRTNYADSVKGRFTISRDNAKNTVYLQMISLKPEDTAVYYCNAENTYLGSRYRPYNYWGQGTQVTVSS | low polyreactivity
8 | QVQLVDSGGGLVQAGGSLRLSCAASGFTFSYYVMGWYRQAPGKERELVAAITSSGGSTYYADSVKGRFTISRDNAKNTVSLQMISRNPEDTAVYYCNALVLSSEYGYWGLGTQVTVSS | high polyreactivity
9 | QVQLVESGGGLVQAGGSLRLSCAASGTFAGNAMGWYRQAPGKERELVAAITTGGRTYYADSVKRRFTISRDNAKNTLYIQMNSLKPEDTAVYYCAADRIRDLEFDYWGQGTQVTVSS | low polyreactivity
10 | QVQLQESGGGLVQAGGSLRLSCAASGIIFDNPNMGWYRQAPGKERELVATINSGATTNYADSVKGRFTISRDNENNTVYLQMNSLIPEDTAVYYCAVDLSPTYFYFWGQGTQVTVSS | high polyreactivity
11 | QVQLVEAGGGLVQAGGSLRLSCGASGRIFQSNAMGGYRLAPGKERELVAAISKSGGSTYYADSVKGRFTISRDNAKNTVYLQMNSLKPEDPAVYYCAAYPPRRMYYWGQGTQVTVSS | high polyreactivity
12 | QVQLVESGGGLVQAGGSLRLSCAASGRTFPWYGKGWYRPAPGKERELVAAISRTGGNTYYADSVKGRFTISRDNAKNTVYLQMNSLKPEDTAVYYCNAGYYSNRYYFYDYGYWGQGTQVTVSS | high polyreactivity
13 | QVQLVESGGGLVQAGGSLRLRCAASGFNHKPMGCYRQAPGKERELVAAISYSAGSTYYADSVKGRFTISRDNAKNTVYLQMNSLKPEDTAVYYCDIRYNYFTGTLSRYYSNIYGYWGQGTQVTVSS | high polyreactivity
14 | QVQHVESGGGLVQAGGRLRLSCAASGIIFQYYAMGSYRQAPGKERESVAGITYPGGSTYYADSVKGRFTISRDNAKNTVYLPKNSLQPEDTAVYFCNAVGVSARYWRQLPSYRYDYWGQGTQVTVSS | low polyreactivity
15 | QVQLVESGGGLVQAGGSLRLSCAASGSTFSRYAMGWYRQAPGKEREFGAAISRRAGGTYYADSVKGRFTISRDNAKNTVYLQMNSLKPEDTAVYYCAKVLPRDYIGRATYDYWGQGTQVTVSS | high polyreactivity
16 | QVQLEESGGCLVQAGGSLRLSCAASGFTFYQNAMGWYRQAPGKERELVAAISSGASTYYADSVKGRFTISRDNAKNTVYLQMNSLKPEDTAVYYCAADRYKPSLRWRRPKMNYWGQGTQVTVSS | high polyreactivity
17 | QVQLVESGGGLVQAGGSLRLSCAASGSIFGYNVMGWYRQAPGKERELVAAITYSGGSTYYADSVKGRFTISRDNAKNTVYLQMNSQKQEDTAVYYCAKVTGRRFPAYGYDHWGQGTQVTVSS | high polyreactivity
18 | QFQLVESGGGLVQAGGSLRLSCAASGSTFLSNAMGWYRQAPGKERELVAGIDYNDGSTYYADSVKGRFTISRDNAKNTVYLKMNRLKPADTAVYYCAARWVFRRYVICMDFWGQGTEVTVSS | low polyreactivity
19 | QVQLQESGGGLVQAGGSLRLSCAASGYISYFVGMAWYRQAPGKEREFVASIADGSNTYYADSVKGRFTISRDNAKNTVYLQRNSLKPEDTAVFYCAVEDSWTYRFDYWGQGTLVTVSS | high polyreactivity
20 | QVQLVESGGGLVQAGGSLRVSCAASGYTFDLYAMGWYRQAPGKERELVADISSGGSTNYADSVKGRFTISRDNAKNTVYLQMNSLKPEDTAVYYCAVDADRTLFGQYYVSEYGGGYWGQGTQVTVSS | low polyreactivity
21 | QVQLVESGGGLVQAGGSLRLSCAASGSIFYSYDMGWYRQAPGKERELVAAIDWSGGSTYYADSVKGRFTISRDNAKNTVYLQMNSLKPEDTAVYYCAADDQVEGDYWGQGTQVTVSS | high polyreactivity
22 | QVQLVESGGGLVQAGGSLRLSCAASGFTFRTYGMGWYSQAPGKERELVAAISRSSATTYYADSVKGRFTISRDNAKTTVYLQINSLKPEDTAVYYCNAGDLGRRWGMDYSGQGTQVTVSS | low polyreactivity

Row | Sequence | polyreactivity (PSR sort gate)
23 | QVQLVESGGGLVQAGGSLRLSCAASGRIFVNNAMGWYRQAPGKEREFVAGISFSGDGRTYYADSVKGRFTISRDNAKNTVYLQMNSLKPEDTAVYYCAAPHRSRTHELDYWGQGTQVTVSS | low polyreactivity
24 | QVQLVESGGGLVQAGGSLRLSCAASGHTFRKYAMGWYRQAPGKERELVASITWSDGITYYADSVKGRFTISRDNAKNTVYLQMNSLKPEDTAVYYCATDLVQSEYDYWGQGTQVTVSS | low polyreactivity
25 | QVQLVESGVGLVQAGGSLRLICAASGITFSGYDMVWYRQAPWKERELVAAISGSGTSTYYADSEKGRFTISRDKAKNTVYLQMNSLKPEDTAVYYCAARDAIFGSDYWGQGTQVTVSS | high polyreactivity
26 | HVQLVESGGGLVQAGGSLRLSCAASGSTFDVYAMGWYRQAPGKERELVAAISRSGGSTYYADSVKGRFTISRDNAKNTVYLQMNSLKPEDTAVYYCNARLARWGSYEYNYWGQGTQVTVSS | low polyreactivity
27 | QVQLVESGGGLVQAGGSLRLSCAASGSIFYYNYMGWYRQAPGKERELVATITNGGGTNYADSVKGRFTISRDNAKNTVYLQMNSLKPEDTAVYYCARDVWSPDYLYDYWGQGTQVTVSS | low polyreactivity
28 | QVQLVESGGGLVQAGGSLRLSCAASGRIIGTNARGWYRQAPGNERELVASISSRSTRTYYADSVKGRFTISRDNAKNTVYLQMNSLKPEDTAVYYCAARYPYYVHYDYWGQGTQVTVSS | high polyreactivity
29 | QVQLVESGGGLVQAGGSLRLICAASGRTFYYNAMGWYRQAPGKERELVAAINRGTGGTFYADSVKGRFTISRDNAKNTVYLQMNSLKPEDTAVYYCAADLDGSSEYEYWGQGTQVTVSS | low polyreactivity
30 | QVQLVESGGGLVQAGGSLRLSCAASGFISAYYAMGWYRQAPAKERELVAGINSNGGSTYYADSVKGRFTISRDNAKNTVYLQMNSLKPEDTAVYYCNKRYRHLYYKSVGSYDYWGQGTQVTVSS | high polyreactivity
31 | QVQLVESGGGLVQAGGSLRLSCAASGSIFYWYAMGWYRQAPGKERELVAAITSSSGRTRYADSVKGRFTISRDNAKNTVYLQMNSLKPEDTAVYYCAAGRWGSYYTPRPYGYWGQGTQVTVSS | high polyreactivity
32 | QVQLVESGGGLVQAGGSLRLSCAASGIFVGYTMGWYRQAPGKERELVAAIRWTDGSTYYADSVKGRFTISRDNAKNTVYLQMISLKPEDTAVYYCAADSHDPARYYYGDEFEDEYWGQGTQVTVSS | low polyreactivity
33 | QVQLVESGGGLVQAGGSLRLSCAASGSIFYTYVMGWYRPAPGKERELVAAISASGVRTYYADSVKGRFTISRDNAKYTFYLQMNSLKPEYTAVYFCAADRQRADYYWGQGTQVTVSS | high polyreactivity
34 | QVQLEESGGGLVQAGGSLRLSCAASGFIFQYNAMGWYRQAPGKEREFVDAINYSGGNTYYADSVKGRFTISRDTAKNTVYLQMNSLKPEDTAVYYCNVRLWYGRWWYNRYNYWGQGTQVTVSS | high polyreactivity
35 | QVQLVESGGGLVQAGGSLRLSCAASGSIFPYNAMGWYRQAPGKEREFVAAITYSGGSTYYADSVKGRFTISRDNAKNTVYLQMNSLKPEDTAVYYCAAGYSSRGSRDGYWGQGTQVTVSS | low polyreactivity
36 | QVQLVESGGGLVQAGGSLRLSCAASGRISGGYAMGWYRQAPGKERELVAVISSGGRTYYADSVKGRFTISRDNAKNTVDLHMNSLKPEVTGVYYCNAYTWGIVDNYDYWGQGTQVTVSS | low polyreactivity
37 | QVQLVESGGGLVQAGGSLRLSCAASGSIFSYNAMGWYRQAPGKERELVAAITWSGGSTYYADSVKGRFTISRDNAKNTVYLQMNSLKPEDTAVYYCAAVYDDYSTSVGYSPEYDYWGQGTQVTESS | high polyreactivity
38 | QVQLVESGGGLVQAGGSLRLSCAASGRIFTSNAMAWYRQAPGKERELVAAISASGGRTYYADSVKGRFTISRDNAKNTVYLQMNSLKPEDTAVYYCAALSTGRLSDHGYWGQGTQVTVSS | high polyreactivity
39 | QVQLVESGGGLVQAGGSLRLSCAASGIILYRYAMGWYRPAPGKERELVAAISRSGGNTYYADSVKGRFTISRDNAKNTVYLQMNSLKPEDTAVYYCAAKPLQGVRRVEYWGQGTQVTVSS | high polyreactivity
40 | QVQLVESGGGLVQAGGSLRLSCAASGSTFSINAMGWYRQAPGKERELVAAITWRGVRTYYADSVKGRFTISRDNAKNTVYLQMNSLKPEDPAVYYCAAVPATSYPRRYVYAYYYWGQGTQVTVSS | high polyreactivity
41 | QVQLVESVGGLVQAGGSLRLSCAASGFIFKRYAMGWYRQAPGKERELVAAITGSGGSTYYADSVKGRFTISRDNAKNTVYLQMNSLKPEDTAVYYCARGNGGSLDYWGQGTQVTVSS | high polyreactivity
42 | QVQLVESGGGLVQAGGSLRLSCDASGSTFPFYAMARYRQAPRKERELVAAIRNTGNTYYADSVKGSFTISRDNAKNTAYLQMNSLNPEDPAVYYCAKALRSASDYWGQGTQVTVSS | low polyreactivity
43 | QVQLVESWGGLVQAGGSLRLSCDASGSTLYHNVMGWYRQAPGKERDLVASIDTGDSTNYADSVKGRFSISRDNAKNTVYLQMNSLKPEDTAVSYCNADSYTALNNRGYDYWGLGTQVTVSS | low polyreactivity
